Test results as given in patent US20230265215A1 (OMEROS, published 2023).

Tests used:
[1] = biological target: T1, mouse MASP-2 (endogenous, in mouse serum or hirudin plasma) (mouse, UniProt Q91WP0 20-685); test: cell-based or functional assay
[2] = biological target: T2, cynomolgus monkey MASP-2 (endogenous, in cynomolgus monkey serum) (cynomolgus monkey, UniProt O00187 16-686 (human entry), limits assumed); test: cell-based or functional assay
[3] = biological target: T3, human MASP-2 (endogenous, in normal human serum) (human, UniProt O00187 16-686); test: cell-based or functional assay
T3 sequence (O00187 16-686 limits assumed): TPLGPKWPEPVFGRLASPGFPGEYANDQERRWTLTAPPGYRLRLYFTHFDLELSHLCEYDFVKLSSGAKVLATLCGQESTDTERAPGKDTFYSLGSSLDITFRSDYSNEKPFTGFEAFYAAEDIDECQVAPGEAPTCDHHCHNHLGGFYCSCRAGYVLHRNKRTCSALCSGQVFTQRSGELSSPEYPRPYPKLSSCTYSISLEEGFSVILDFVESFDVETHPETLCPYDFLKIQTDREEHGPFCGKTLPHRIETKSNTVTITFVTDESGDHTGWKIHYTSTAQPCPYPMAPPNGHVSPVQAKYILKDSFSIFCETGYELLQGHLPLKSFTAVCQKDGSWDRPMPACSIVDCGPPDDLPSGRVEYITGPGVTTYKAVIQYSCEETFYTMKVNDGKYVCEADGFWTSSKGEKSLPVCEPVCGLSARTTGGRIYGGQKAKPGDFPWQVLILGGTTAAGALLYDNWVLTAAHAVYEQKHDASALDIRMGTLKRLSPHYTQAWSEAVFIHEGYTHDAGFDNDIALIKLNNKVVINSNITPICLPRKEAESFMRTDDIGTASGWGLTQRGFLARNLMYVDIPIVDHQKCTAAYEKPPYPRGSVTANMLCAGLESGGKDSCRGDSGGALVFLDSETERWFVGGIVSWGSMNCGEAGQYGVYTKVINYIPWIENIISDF

[4] = biological target: T4, Catalytically active MASP-2 (human) (human, UniProt O00187 16-686, limits assumed); test: SPR, immobilized OMS858, fluid phase MASP-2
T4 construct: also called catalytically active form of human MASP-2
T4 sequence (O00187 16-686 limits assumed): as above

Zymogen MASP-2 (human) = biological target: T5, Zymogen MASP-2 (human) (human, UniProt O00187 16-686, limits assumed); test: SPR, immobilized OMS858, fluid phase MASP-2
T5 construct: also called zymogen form of human MASP-2
T5 sequence (O00187 16-686 limits assumed): as above

[5] = biological target: T6, Human MASP-2 CCP1/CCP2/SP H508Q 'dog-like' (human, UniProt O00187 287-686, limits assumed); test: BLI (Octet RED96), H508Q against wild-type human MASP-2 CCP1/CCP2/SP
T6 construct: also called dog-like variant of human MASP-2; MASP-2 H508Q
T6 sequence (O00187 other isoform, or with tags, fused parts or gaps H508Q H508Q limits assumed): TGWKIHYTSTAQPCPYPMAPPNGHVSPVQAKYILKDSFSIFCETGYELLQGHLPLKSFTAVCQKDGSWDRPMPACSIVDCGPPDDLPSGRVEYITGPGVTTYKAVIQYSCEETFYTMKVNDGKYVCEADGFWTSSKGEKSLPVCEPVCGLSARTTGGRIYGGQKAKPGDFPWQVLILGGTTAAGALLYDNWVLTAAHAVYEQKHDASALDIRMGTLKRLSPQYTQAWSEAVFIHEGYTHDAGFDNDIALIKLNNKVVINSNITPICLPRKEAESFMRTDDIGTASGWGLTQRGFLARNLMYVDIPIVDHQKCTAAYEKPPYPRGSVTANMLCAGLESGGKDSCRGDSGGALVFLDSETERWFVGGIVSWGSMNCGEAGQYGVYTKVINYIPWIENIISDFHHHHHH
Experimental: (§1) All measurements were conducted with the Octet RED96 system (ForteBio) using PBS containing 1% BSA and 0.02% Tween 20 as assay buffer. […] After one step of baseline, the captured sensors were submerged into wells containing different concentrations of the target proteins (1.6-50 nM) for the association step (120 sec), and then transferred to empty wells for the dissociation step (200 sec). In all experiments, the captured sensor was also dipped in a well containing no analyte to allow single reference subtraction to compensate for the natural dissociation of the captured antibody. The recorded binding sensorgrams were analyzed with Octet data analysis software (ForteBio) to determine binding affinity (KD).

Cyno MASP-2 CCP1/CCP2/SP = biological target: T7, Cyno MASP-2 CCP1/CCP2/SP (cynomolgus monkey, UniProt O00187 287-686 (human entry), limits assumed); test: BLI (Octet RED96), OMS858 on anti-human Fc capture sensors, MASP-2 protein 1.6-50 nM
T7 construct: also called cynomolgus monkey MASP-2 CCP1/CCP2/SP
T7 sequence (O00187 other isoform, or with tags, fused parts or gaps limits assumed): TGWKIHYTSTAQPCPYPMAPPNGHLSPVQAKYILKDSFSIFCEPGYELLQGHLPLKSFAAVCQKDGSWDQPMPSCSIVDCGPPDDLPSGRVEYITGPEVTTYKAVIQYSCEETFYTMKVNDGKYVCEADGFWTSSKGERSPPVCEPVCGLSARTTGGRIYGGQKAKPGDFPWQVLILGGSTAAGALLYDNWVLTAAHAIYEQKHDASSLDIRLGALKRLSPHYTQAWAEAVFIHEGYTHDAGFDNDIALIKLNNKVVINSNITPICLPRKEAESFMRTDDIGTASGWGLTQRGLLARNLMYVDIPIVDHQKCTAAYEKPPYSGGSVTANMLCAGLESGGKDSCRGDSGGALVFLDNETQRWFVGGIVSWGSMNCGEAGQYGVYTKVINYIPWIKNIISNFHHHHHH
Experimental: as §1

[6] = biological target: T8, Human MASP-2 CCP1/CCP2/SP (6xHis, E. coli, Example 10) (human, UniProt O00187 287-686, limits assumed); test: as above
T8 construct: Expressed in BL21(DE3)pLysS E. coli and purified by IMAC; It may be the same protein as m6; also called catalytic fragment (CCP1-CCP2-SP domains) of human MASP-2; wild-type human H508
T8 sequence (O00187 other isoform, or with tags, fused parts or gaps limits assumed): as the sequence (O00187 other isoform, or with tags, fused parts or gaps H508Q H508Q limits assumed) above, with Q222H counted along it
Experimental: as §1

[7] = biological target: T6, Human MASP-2 CCP1/CCP2/SP H508Q …; test: as above
Experimental: as §1

[8] = biological target: Mouse MASP-2 CCP1/CCP2/SP (mouse, UniProt Q91WP0 287-685, limits assumed); test: as above
Chain of Mouse MASP-2 CCP1/CCP2/SP (Q91WP0 other isoform, or with tags, fused parts or gaps limits assumed): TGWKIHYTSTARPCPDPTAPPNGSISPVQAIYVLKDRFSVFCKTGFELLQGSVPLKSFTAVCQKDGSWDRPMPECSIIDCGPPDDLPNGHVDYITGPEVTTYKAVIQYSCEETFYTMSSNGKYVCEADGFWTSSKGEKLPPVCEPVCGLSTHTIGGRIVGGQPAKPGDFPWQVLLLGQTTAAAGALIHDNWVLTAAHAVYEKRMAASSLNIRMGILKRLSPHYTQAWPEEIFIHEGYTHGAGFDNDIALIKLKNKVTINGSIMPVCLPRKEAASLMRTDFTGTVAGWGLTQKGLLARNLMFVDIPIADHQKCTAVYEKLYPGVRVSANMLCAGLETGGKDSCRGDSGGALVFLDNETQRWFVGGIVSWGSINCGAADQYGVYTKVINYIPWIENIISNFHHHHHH
Experimental: as §1

[9] = biological target: T1, mouse MASP-2 (endogenous, in mouse …); test: cell-based or functional assay; remark: listed apart in the source
[10] = biological target: dog MASP-2 (endogenous, in dog serum) (dog); test: cell-based or functional assay
Chain of dog MASP-2 (endogenous, in dog serum) (dog) (chain, as listed by the source limits assumed): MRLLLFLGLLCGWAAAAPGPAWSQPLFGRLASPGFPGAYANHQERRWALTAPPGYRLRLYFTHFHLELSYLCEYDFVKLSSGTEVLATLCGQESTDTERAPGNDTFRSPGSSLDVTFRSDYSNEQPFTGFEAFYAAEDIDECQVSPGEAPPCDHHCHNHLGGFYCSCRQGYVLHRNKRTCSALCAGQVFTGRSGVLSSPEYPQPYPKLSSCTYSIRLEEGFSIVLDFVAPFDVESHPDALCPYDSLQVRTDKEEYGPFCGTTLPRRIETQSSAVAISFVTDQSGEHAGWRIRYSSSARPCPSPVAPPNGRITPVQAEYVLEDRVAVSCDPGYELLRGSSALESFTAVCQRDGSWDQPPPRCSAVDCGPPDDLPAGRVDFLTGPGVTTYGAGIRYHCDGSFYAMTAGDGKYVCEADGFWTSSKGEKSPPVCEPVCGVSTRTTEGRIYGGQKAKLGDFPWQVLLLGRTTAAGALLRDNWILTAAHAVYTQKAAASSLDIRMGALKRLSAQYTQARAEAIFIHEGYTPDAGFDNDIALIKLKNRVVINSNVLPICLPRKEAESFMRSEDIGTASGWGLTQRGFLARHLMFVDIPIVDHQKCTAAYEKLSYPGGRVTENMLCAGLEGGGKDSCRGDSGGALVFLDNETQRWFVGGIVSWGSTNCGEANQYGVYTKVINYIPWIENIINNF

[11] = biological target: T2, cynomolgus monkey MASP-2 (endogenous, …); test: cell-based or functional assay; remark: listed apart in the source
[12] = biological target: T3, human MASP-2 (endogenous, in normal …); test: cell-based or functional assay; remark: listed apart in the source
[13] = biological target: rabbit MASP-2 (endogenous, in rabbit serum) (rabbit); test: cell-based or functional assay

T2 sequence (O00187 other isoform, or with tags, fused parts or gaps limits assumed): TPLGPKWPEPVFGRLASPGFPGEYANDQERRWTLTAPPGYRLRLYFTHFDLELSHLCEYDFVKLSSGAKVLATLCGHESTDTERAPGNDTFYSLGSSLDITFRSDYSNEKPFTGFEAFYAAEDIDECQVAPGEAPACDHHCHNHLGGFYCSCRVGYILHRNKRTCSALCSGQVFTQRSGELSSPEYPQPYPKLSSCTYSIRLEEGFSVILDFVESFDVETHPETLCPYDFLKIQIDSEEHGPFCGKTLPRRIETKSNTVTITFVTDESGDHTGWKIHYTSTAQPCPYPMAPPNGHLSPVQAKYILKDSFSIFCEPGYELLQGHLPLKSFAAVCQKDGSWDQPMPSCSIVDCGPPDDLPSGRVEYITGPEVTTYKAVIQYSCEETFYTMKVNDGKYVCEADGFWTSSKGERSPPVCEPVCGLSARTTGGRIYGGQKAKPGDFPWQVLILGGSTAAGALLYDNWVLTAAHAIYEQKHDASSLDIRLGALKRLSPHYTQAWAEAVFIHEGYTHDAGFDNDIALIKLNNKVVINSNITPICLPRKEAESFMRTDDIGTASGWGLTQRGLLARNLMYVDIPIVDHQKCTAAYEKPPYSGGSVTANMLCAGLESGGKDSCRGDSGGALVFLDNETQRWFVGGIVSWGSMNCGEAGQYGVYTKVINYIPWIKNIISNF
T1 sequence (Q91WP0 20-685 limits assumed): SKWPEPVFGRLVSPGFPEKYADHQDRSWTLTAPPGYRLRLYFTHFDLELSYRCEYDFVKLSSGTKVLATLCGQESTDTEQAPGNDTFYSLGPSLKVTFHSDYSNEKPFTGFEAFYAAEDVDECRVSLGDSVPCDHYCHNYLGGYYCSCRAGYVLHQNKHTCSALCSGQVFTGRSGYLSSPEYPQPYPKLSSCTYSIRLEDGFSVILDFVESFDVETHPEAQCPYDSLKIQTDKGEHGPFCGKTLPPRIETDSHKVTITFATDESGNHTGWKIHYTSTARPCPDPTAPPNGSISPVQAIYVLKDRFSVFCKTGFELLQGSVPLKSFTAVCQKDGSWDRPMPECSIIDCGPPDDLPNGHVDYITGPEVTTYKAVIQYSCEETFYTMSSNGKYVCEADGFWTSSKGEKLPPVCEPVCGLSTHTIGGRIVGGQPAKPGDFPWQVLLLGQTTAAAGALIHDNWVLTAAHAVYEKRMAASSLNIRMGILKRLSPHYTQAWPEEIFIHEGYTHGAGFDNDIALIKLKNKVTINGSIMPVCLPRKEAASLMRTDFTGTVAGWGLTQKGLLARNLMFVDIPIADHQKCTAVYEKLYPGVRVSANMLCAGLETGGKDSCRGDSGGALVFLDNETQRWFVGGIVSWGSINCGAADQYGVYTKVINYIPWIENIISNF

B1: mAb OMS858 (humanized anti-MASP-2 antibody) (antibody, V domains shown)
VH: QVQLVQSGAEVKKPGASVKVSCKASGYTFTNHHMHWLRQAPGQGLEWIGDIDASDSETHYIEKFKDRATLTIDKSSSTAYMELSSLRSEDTAVYYCARGDITTTLRYFDVWGQGTLVTVSS
VL: DIQLTQSPSSLSASVGDRVTITCSASSSVRYMYWYQQKPGKAPKLLIYDTSNLASGVPSRFSGSGSGTDNTLTISSLQPEDFATYYCQQWSSYPLTFGQGTKVEIKR
notes: also called antibody OMS858; biotinylated OMS858
[1]
  Ratio (IC50-Query/IC50-Human), lectin-dependent C4 activation: 10.9 fold
[2]
  Ratio (IC50-Query/IC50-Human), lectin-dependent C4 activation: 40.5 fold
[3]
  C5b-9 deposition, lectin pathway-specific conditions (Wieslab), human serum, IC50: 0.00081 µM
  MAC deposition under lectin pathway-specific conditions (Wieslab COMPL300), IC50: ~0.001 µM
[4]
  Kd: 0.000287 µM
  koff: 0.00971 s⁻¹
  kon: 3.38e+07 M⁻¹ s⁻¹
Zymogen MASP-2 (human)
  Kd: 0.000715 µM
  koff: 0.000172 s⁻¹
  kon: 241000 M⁻¹ s⁻¹
[5]
  fold reduction of binding affinity against wild-type human MASP-2 CCP1/CCP2/SP: ~450 fold
Cyno MASP-2 CCP1/CCP2/SP
  Kd: 0.00823 µM
[6]
  Kd: 0.00452 µM
[7]
  Kd: ~2 µM
[8]
  Kd: 0.0329 µM
[9]
  lectin-dependent C4 activation in 50% mouse hirudin plasma, IC50, Experiment 1: 0.00959 µM
  lectin-dependent C4 activation in 50% mouse hirudin plasma, IC50, Experiment 2: 0.0112 µM
  lectin-dependent C4 activation in 50% mouse hirudin plasma, IC50, Experiment 3: 0.0148 µM
  lectin-dependent C4 activation in 50% mouse hirudin plasma, IC50, MEAN: 0.0119 µM
[10]
  lectin-dependent C4 activation in 50% dog serum, IC50, Experiment 1: > 0.5 µM
  lectin-dependent C4 activation in 50% dog serum, IC50, Experiment 2: > 0.5 µM
  lectin-dependent C4 activation in 50% dog serum, IC50, Experiment 3: > 0.5 µM
[11]
  lectin-dependent C4 activation in 50% cynomolgus monkey serum, IC50, Experiment 1: 0.0428 µM
  lectin-dependent C4 activation in 50% cynomolgus monkey serum, IC50, Experiment 2: 0.044 µM
  lectin-dependent C4 activation in 50% cynomolgus monkey serum, IC50, Experiment 3: 0.0455 µM
  lectin-dependent C4 activation in 50% cynomolgus monkey serum, IC50, MEAN: 0.0441 µM
[12]
  lectin-dependent C4 activation in 50% human serum, IC50, Experiment 1: 0.00089 µM
  lectin-dependent C4 activation in 50% human serum, IC50, Experiment 2: 0.00086 µM
  lectin-dependent C4 activation in 50% human serum, IC50, Experiment 3: 0.00152 µM
  lectin-dependent C4 activation in 50% human serum, IC50, MEAN: 0.00109 µM
[13]
  lectin-dependent C4 activation in 50% rabbit serum, IC50, Experiment 1: > 0.5 µM
  lectin-dependent C4 activation in 50% rabbit serum, IC50, Experiment 2: > 0.5 µM
  lectin-dependent C4 activation in 50% rabbit serum, IC50, Experiment 3: > 0.5 µM
